The source of these data is patent US8293494B2, “Tri-demethylation-capable protein complex, method of its preparation and its use” (Universitatsklinikum Freiburg, priority 2007, dated 2012).

Positions count from the first letter of the chain named. Names and notes keep the numbering of the source.

This experiment deals with H3K9 on core histones or nucleosomes from HeLa cells. As to the kind of experiment: In vitro demethylation assay. In kind it is biochemical. Particulars: 5 hours at 37° C., Western blot; for demethylation of trimethyl H3K9: core histones and nucleosomes from HeLa cells. The procedure:
FIG. 2 JMJD2C interacts with chromatin and demethylates H3K9. LNCaP cells were incubated with or without the AR agonist R1881 (a, b), and transfected with stealth RNAi (b). ChIP or Re-ChIP was performed with the indicated antibodies. The precipitated chromatin was amplified by PCR using primers flanking the promoter region (ARE I+II) and the enhancer region (ARE III) of the PSA gene, the promoter region (ARE) of the KLK2 gene, or the promoters of the unrelated GAPDH and U6 genes. Western blot analysis (b, lower right panel) verified the specific siRNA-mediated knockdown of JMJD2C. c, Core histories or nucleosomes from HeLa cells were incubated with recombinant JMJD2C (aa 12-349) or mutant JMJD2C H190A (aa 12-349). Western blots were decorated with the indicated antibodies against α-mono-, α-di-, or α-trimethyl H3K9.
FIG. 6: The integrity of core histones and nucleosomes is maintained during the demethylation assay. Core histones or nucleosomes from HeLa cells were incubated with recombinant JMJD2C (aa 12-349) or mutant JMJD2C H190A (aa 12-349). Western blots were decorated with α-H3 antibody.
The demethylation assays were performed as described^4. His-tagged proteins were incubated for 5 hours at 37° C. in demethylation buffer containing 50 mM HEPES-KOH pH 8.0, 2 mM ascorbate, 100 μM Fe(NH4)2(SO4)2, 1 mM α-ketoglutarate with 1 μg of nucleosomes or core histones purified from HeLa cells^22. The reaction mixture was analysed by SDS-PAGE followed by Western blotting using antibodies as indicated.
In general terms: Immunoblotting shows a protein as a band on a membrane.

B1: JMJD2C: Recombinantly expressed and purified His-tagged JMJD2C (aa 12-349), a JMJC domain-containing histone demethylase (protein, UniProt Q9H3R0 12-349, looked up, fragment)
chain: PSCKIMTFRPSMEEFREFNKYLAYMESKGAHRAGLAKVIPPKEWKPRQCYDDIDNLLIPAPIQQMVTGQSGLFTQYNIQKKAMTVKEFRQLANSGKYCTPRYLDYEDLERKYWKNLTFVAPIYGADINGSIYDEGVDEWNIARLNTVLDVVEEECGISIEGVNTPYLYFGMWKTTFAWHTEDMDLYSINYLHFGEPKSWYAIPPEHGKRLERLAQGFFPSSSQGCDAFLRHKMTLISPSVLKKYGIPFDKITQEAGEFMITFPYGYHAGFNHGFNCAESTNFATVRWIDYGKVAKLCTCRKDMVKISMDIFVRKFQPDRYQLWKQGKDIYTIDHTKPT
modifications: His-tag
notes: Recombinantly expressed and purified His-tagged JMJD2C (aa 12-349), a JMJC domain-containing histone demethylase
In the case of B1, the “methylation status of mono- and dimethyl H3K9” value is reported as “not altered”; the “demethylation of trimethyl H3K9” value is “very efficiently demethylates”.

B2: JMJD2C H190A: enzymatically impaired mutant JMJD2C H190A (aa 12-349) (protein)
chain: B1 chain with H179A
modifications: left off: small tags and cut ends
Turning to B2, the “demethylation of trimethyl H3K9” value is “fails to demethylate”.
